Each block holds one compound with its values, some of them ahead of it. Ends that are not written are not given here. * marks the point of attachment. Biotin = O=C1N[C@H]2[C@H](CS[C@H]2CCCCC(=O)*)N1
Experiments:
[1] = target: T1, SF-1 LBD / TIF2 co-activator motif interaction (Mus musculus, UniProt P33242); test: AlphaScreen assay of SF-1 binding to TIF2 co-activator LxxLL motif in absence or presence of phospholipids; type: biochemical; conditions: for EC50: in the presence of 10% ethanol, FIG. 5E, read-out: potency (EC50) for recovering the SF-1/TIF2 binding activity
T1 construct: The mouse SF1 LBD (residues 221-462) was expressed as a 6×His fusion protein; made in house; host or cells: E. coli BL21 (DE3), pET24a
T1 sequence (P33242 221-462): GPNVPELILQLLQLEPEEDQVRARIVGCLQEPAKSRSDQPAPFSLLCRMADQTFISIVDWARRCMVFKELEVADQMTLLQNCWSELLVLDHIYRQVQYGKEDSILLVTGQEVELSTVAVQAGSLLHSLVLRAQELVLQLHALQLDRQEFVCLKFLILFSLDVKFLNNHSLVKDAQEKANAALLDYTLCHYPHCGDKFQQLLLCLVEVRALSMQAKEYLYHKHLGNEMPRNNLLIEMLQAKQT
Method: The mouse SF1 LBD (residues 221-462) was expressed as a 6×His fusion protein from the expression vector pET24a (Novagen). BL21 (DE3) cells transformed with this expression plasmid were grown in LB broth at 16° C. to an OD600 of ˜1.0 and induced with 0.1 mM isopropylthio-β-D-galactoside (IPTG) for 16 hours. Cells were harvested, resuspended in 400 ml extract buffer (20 mM Tris pH8.0, 150 mM NaCl, 10% glycerol) per 6 l. of cells, and passed 3 times through a French Press with pressure set at 1000 pa. The lysate was centrifuged at 20,000 rpm for 30 minutes and the supernatant was loaded onto a 50 ml Ni-NTA column (Qiagen). The column was washed with extract buffer and the protein eluted with 300 ml gradient to buffer B (10 mM Tris, PH8.0, 150 mM NaCl, 10% glycerol and 500 mM imidazole). The protein was further purified with a Q-Sepharose column (Amersham Biosciences). A typical yield of the purified protein was about 100 mg from each liter of cells. To prepare the protein-cofactor complex, we added a 2-fold excess of the SHP peptide ([…]; SEQ ID NO:1) to the purified protein, followed by filter concentration to 15 mg/ml.
(§1) All phospholipids were purchased from Sigma and stored according to the manufacturer's instructions. The binding of the various peptide motifs to SF-1 was determined by AlphaScreen™ assays from Perkins-Elmer as described recently for other nuclear receptors (Xu et al., 2002). Wild type SF-1 and the mutated LBDs were purified as 6×His tag fusion proteins for the assays. The experiments were conducted with approximately 20-30 nM receptor LBD and 20 nM of biotinylated TIF2 peptide or other co-activator peptides in the presence of 5 μg/ml donor and acceptor beads in a buffer containing 50 mM MOPS, 50 mM NaF, 0.05 mM CHAPS, and 0.1 mg/ml bovine serum albumin, all adjusted to pH 7.4. An AlphaScreen kit for detection of hexa-His was used in this experiment and the binding signals for the TIF2/SF-1 interaction were detected in the absence or the presence of exogenous phospholipids. EC50/IC50 values for the effects of phospholipids on TIF2 binding to SF-1 were determined from a nonlinear least square fit of the data based on an average of three repeated experiments with standard errors typically less than 10% of measurements.

[2] = system: mutated SF-1 LBD (pocket residue to tryptophan mutants); test: AlphaScreen assay: effect of 12PE on restoring co-activator binding of mutated SF-1 receptors; type: biochemical, mouse; conditions: 12PE 1.25 μM, FIG. 6E
Method: E. Effects of 12PE (1.25 μM) on restoring TIF2 binding activity of mutated SF-1 receptors.
as §1, with “EC50/IC50 values for the effects of phospholipids on TIF2 binding to SF-1 were determined from a nonlinear least square fit of the data based on an average of three repeated experiments with standard errors typically less than 10% of measurements.” left out
The SF-1 pocket comprises 51 residues that form intimate contacts with the bound phospholipid ligand. […] All mutated receptors expressed well and were readily purified for AlphaScreen assays that measure SF-1 recruitment of three different co-activator motifs that show interactions with SF-1 in FIG. 1A.

[3] = target: T2, SF-1 LBD (Mus musculus, UniProt P33242); test: AlphaScreen binding of LxxLL / co-repressor motif peptides to purified SF-1 LBD; conditions: FIG. 1A
T2 construct: The mouse SF1 LBD (residues 221-462) was expressed as a 6×His fusion protein; made in house; host or cells: E. coli BL21 (DE3), pET24a
T2 sequence (P33242 221-462): as above
Method: A. Binding of various LxxLL motifs to the purified SF-1 LBD as measured by AlphaScreen™ assays. The background reading of either SF-1 or the peptides alone is less than 200. The peptide sequences are listed in experimental procedures. The results are the average of three experiments (error bars=standard deviation).
as §1
The peptides with an N-terminal biotinylation are listed below.

Compound: CCCCCCCCCCCC(=O)OC[C@H](COP(=O)(O)OCCN)OC(=O)CCCCCCCCCCC [12PE, 1,2-Didodecanoyl-sn-glycero-3-phosphoethanolamine]
EC50 [1]: 66 nM | restoration of co-activator binding of SF-1 mutants A270W, L266W and L348W [2]: completely restored | restoration of co-activator binding of SF-1 mutants L345W, V349W and A434W [2]: cannot be restored

Compound: CCCCCCCCCCCCCC(=O)OC[C@H](COP(=O)(O)OCCN)OC(=O)CCCCCCCCCCCCC [14PE, 1,2-dimyristoyl-sn-glycero-3-phosphoethanolamine]
EC50 [1]: 64 nM

Compound: CCCCCCCCCCCCCCCC(=O)OC[C@H](COP(=O)([O-])OCC[N+](C)(C)C)OC(=O)CCCCCCCCCCCCCCC [16PC, 1,2-dihexadecanoyl-sn-glycero-3-phosphocholine]
EC50 [1]: 80 to 120 nM

Compound: CCCCC/C=C\C/C=C\CCCCCCCC(=O)OC[C@H](COP(=O)([O-])OCC[N+](C)(C)C)OC(=O)CCCCCCC/C=C\C/C=C\CCCCC [18PCD, 1,2-dilinoleonyl-sn-glycerol-3-phosphocholine]
effect on high basal SF-1/TIF2 interaction ([1]; absence of ethanol, FIG. 5D): disrupted the high basal interactions of SF-1 with TIF2 in a dose dependent manner | IC50 ([1]; absence of ethanol, high basal interaction, FIG. 5D, read-out: IC50 for inhibiting the SF-1/TIF2 interactions): 100 to 300 nM

Compound: CBP: N-terminally biotinylated peptide SGNLVPDAASKHKQLSELLRGGSG (SEQ ID NO:8) (Biotin-SGNLVPDAASKHKQLSELLRGGSG; listed as Mus musculus)
interaction of peptide motif with purified SF-1 [3]: not

Compound: SMRT: N-terminally biotinylated co-repressor motif peptide QAVQEHASASTNMGLEAIIRKALMGKY (SEQ ID NO:10) (Biotin-QAVQEHASASTNMGLEAIIRKALMGKY; listed as Mus musculus)
interaction of peptide motif with purified SF-1 [3]: did not interact

Compound: SRC-1 second LxxLL motif: N-terminally biotinylated peptide SPSSHSSLTERHKILHRLLQEGSP (SEQ ID NO:3) (Biotin-SPSSHSSLTERHKILHRLLQEGSP; listed as Mus musculus)
interaction of peptide motif with purified SF-1 [3]: able to interact

Compound: first LxxLL motif of SHP: N-terminally biotinylated peptide PCQGSASHPTILYTLLSPGP (SEQ ID NO:5) (Biotin-PCQGSASHPTILYTLLSPGP; listed as Mus musculus)
interaction of peptide motif with purified SF-1 [3]: able to interact

Second part, the compound after the results:

loss of the SF-1/TIF2 binding activity ([1]; 10% ethanol added to the binding buffer): > 90%
Compound: CCO [ethanol]

interaction of peptide motif with purified SF-1 [3]: did not interact
Compound: N-COR: N-terminally biotinylated co-repressor motif peptide GHSFADPASNLGLEDIIRKALMGSF (SEQ ID NO:9)

interaction of peptide motif with purified SF-1 [3]: able to interact
Compound: SRC-1 fourth LxxLL motif: N-terminally biotinylated peptide QKPTSGPQTPQAQQKSLLQQLLTE (SEQ ID NO:4) (Biotin-QKPTSGPQTPQAQQKSLLQQLLTE; listed as Mus musculus)

AlphaScreen signal on incubation of SF-1 with peptide ([3]; background of SF-1 or peptide alone less than 200): ~45,000 photo counts
Compound: TIF2 peptide: N-terminally biotinylated peptide QEPVSPKKKENALLRYLLDKDDTKD (SEQ ID NO:2), third LxxLL motif of co-activator TIF2

interaction of peptide motif with purified SF-1 [3]: not
Compound: TRAP220: N-terminally biotinylated peptide GHGEDFSKVSQNPILTSLLQITGN (SEQ ID NO:7) (Biotin-GHGEDFSKVSQNPILTSLLQITGN; listed as Mus musculus)

interaction of peptide motif with purified SF-1 [3]: not
Compound: second SHP LxxLL motif: N-terminally biotinylated peptide VABAPVPSILKKILLEEPNS (SEQ ID NO:6)

— patent US20070026059A1, “Ligands for orphan nuclear hormone receptor steroidogenic factor-1 (SF-1)” (priority 2005, published 2007)
